This note sets out measurements from the supplement of paper PMC10567573.

B1: FUT8 (parent)
chain: NWRYATGGWETVFRPVSETCTDRS
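Further: lentivirally expressed fusions sorted by FACS into six bins by GFP to DsRed ratio, PSI derived from sequencing read proportions per bin multiplied by bin number.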

This data set covers variants of B1. Description: protein stability index of a GFP-peptide fusion (GPS, HEK-293T) (PSI 1-6); higher = more stable. The following applies: c terminus: a fixed tail appended.
As to NWRYATGGWETVFRPVSEECTDRS [T19E], the protein stability index turned out to be 2.86. On to NWRYATGGWETVFRPVSECCTDRS [T19C], for which the protein stability index worked out at 1.42. For NWRYATGGWETVFRPVSEGCTDRS [T19G], the protein stability index turned out to be 2.72. With NWRYATGGWETVFRPVSEMCTDRS [T19M], the protein stability index was determined as 1.21. Consider NWRYATGGWETVFRPVSERCTDRS [T19R], for which the protein stability index turned out to be 2.24.

Consider NWRYATGGWETVFRPVSEQCTDRS [T19Q], for which the protein stability index turned out to be 2.37. For NWRYATGGWETVFRPVSEICTDRS [T19I] the value was 2.22. For NWRYATGGWETVFRPVSEFCTDRS [T19F], the protein stability index turned out to be 1.85.

NWRYATGGWETVFRPVSEKCTDRS [T19K]: the protein stability index was 1.84. Take NWRYATGGWETVFRPVSEPCTDRS [T19P]: the protein stability index turned out to be 1.83. For NWRYATGGWETVFRPVSESCTDRS [T19S], the protein stability index turned out to be 2.5.

NWRYATGGWETVFRPVSEYCTDRS [T19Y]: the protein stability index amounted to 3.12. On to NWRYATGGWETVFRPVSELCTDRS [T19L], for which the protein stability index came to 2.3. As to NWRYATGGWETVFRPVSENCTDRS [T19N], the protein stability index came to 2.09. In the case of NWRYATGGWETVDRPVSETCTDRS [F13D], the protein stability index amounted to 3.66.

With NWRYATGGWETVYRPVSETCTDRS [F13Y], the protein stability index stood at 1.55. Consider NWRYATGGWETVIRPVSETCTDRS [F13I], for which the protein stability index worked out at 1.66. NWRYATGGWETVVRPVSETCTDRS [F13V]: the protein stability index was 1.64.

With NWRYATGGWETVERPVSETCTDRS [F13E], the protein stability index was determined as 3.2. As to NWRYATGGWETVKRPVSETCTDRS [F13K], the protein stability index was determined as 3.

As for NWRYATGGWETVHRPVSETCTDRS [F13H], the protein stability index turned out to be 2.99. Regarding NWRYATGGWETVTRPVSETCTDRS [F13T], the protein stability index worked out at 2.28. With NWRYATGGWETVMRPVSETCTDRS [F13M], the protein stability index amounted to 2.28. Regarding NWRYATGGWETVLRPVSETCTDRS [F13L], the protein stability index is 2.28. In the case of NWRYATGGWETVQRPVSETCTDRS [F13Q], the protein stability index amounted to 2.52. Take NWRYATGGWETVWRPVSETCTDRS [F13W]: the protein stability index was 3.09. NWRYATGGWETVNRPVSETCTDRS [F13N]: the protein stability index came out at 2.78. For the variant NWRYATGGWETVPRPVSETCTDRS [F13P], the protein stability index stood at 3.54.

Regarding NWRYATGGWETVARPVSETCTDRS [F13A], the protein stability index is 3.91. For NWRYATGGWETVRRPVSETCTDRS [F13R] the value was 2.69.

Turning to NWRYATGGWETVCRPVSETCTDRS [F13C], the protein stability index was found to be 2.15. For NWRYATGGWRTVFRPVSETCTDRS [E10R] the value was 2.49; for NWRYATGGWDTVFRPVSETCTDRS [E10D], 1.8. As to NWRYATGGWHTVFRPVSETCTDRS [E10H], the protein stability index was 2.21. As for NWRYATGGWQTVFRPVSETCTDRS [E10Q], the protein stability index came to 1.2. For NWRYATGGWTTVFRPVSETCTDRS [E10T] the value was 1.63; for NWRYATGGWPTVFRPVSETCTDRS [E10P], 1.18; for NWRYATGGWITVFRPVSETCTDRS [E10I], 3.19. Consider NWRYATGGWSTVFRPVSETCTDRS [E10S], for which the protein stability index is 1.86. For the variant NWRYATGGWYTVFRPVSETCTDRS [E10Y], the protein stability index came to 2.52.

Take NWRYATGGWKTVFRPVSETCTDRS [E10K]: the protein stability index came out at 3.86. Regarding NWRYATGGWFTVFRPVSETCTDRS [E10F], the protein stability index was found to be 3.97. Take NWRYATGGWVTVFRPVSETCTDRS [E10V]: the protein stability index turned out to be 1.02. As for NWRYATGGWMTVFRPVSETCTDRS [E10M], the protein stability index turned out to be 1.73.

For the variant NWRYATGGWNTVFRPVSETCTDRS [E10N], the protein stability index came to 1.86.

In the case of NWRYATGYWETVFRPVSETCTDRS [G8Y], the protein stability index was 1.89. As to NWRYATGGWEDVFRPVSETCTDRS [T11D], the protein stability index was determined as 2.2. As to NWRYATGGWEYVFRPVSETCTDRS [T11Y], the protein stability index is 4.5. Turning to NWRYATGGWERVFRPVSETCTDRS [T11R], the protein stability index worked out at 3.69.

Take NWRYATGGWEGVFRPVSETCTDRS [T11G]: the protein stability index turned out to be 1.97. Regarding NWRYATGGWEHVFRPVSETCTDRS [T11H], the protein stability index worked out at 1.69.

Regarding NWRYATGGWEQVFRPVSETCTDRS [T11Q], the protein stability index is 2.15. Regarding NWRYATGGWEKVFRPVSETCTDRS [T11K], the protein stability index is 1.68. With NWRYATGGWEVVFRPVSETCTDRS [T11V], the protein stability index is 2.12. As for NWRYATGGWENVFRPVSETCTDRS [T11N], the protein stability index amounted to 1.9. For NWRYATGGWELVFRPVSETCTDRS [T11L] the value was 2.12; for NWRYATGGWEEVFRPVSETCTDRS [T11E], 2.86; for NWRYATGGWEFVFRPVSETCTDRS [T11F], 1.48. On to NWRYATGGWEIVFRPVSETCTDRS [T11I], for which the protein stability index is 3.25. For NWRYATGGWECVFRPVSETCTDRS [T11C] the value was 1.78; for NWRYATGGWEWVFRPVSETCTDRS [T11W], 1.98; for NWRYATGGWEPVFRPVSETCTDRS [T11P], 2. Turning to NWRYATGGWETVFRPVHETCTDRS [S17H], the protein stability index was found to be 1.85. With NWRYATGGWETVFRPVQETCTDRS [S17Q], the protein stability index stood at 2.67. Consider NWRYATGGWETVFRPVTETCTDRS [S17T], for which the protein stability index came out at 1.64. Consider NWRYATGGWETVFRPVAETCTDRS [S17A], for which the protein stability index is 2.34. For NWRYATGGWETVFRPVGETCTDRS [S17G], the protein stability index was 3.4. For NWRYATGGWETVFRPVWETCTDRS [S17W] the value was 2.42. For the variant NWRYATGGWETVFRPVIETCTDRS [S17I], the protein stability index came to 1.28. On to NWRYATGGWETVFRPVDETCTDRS [S17D], for which the protein stability index was 2.33.

On to NWRYATGGWETVFRPVMETCTDRS [S17M], for which the protein stability index is 1.28. Regarding NWRYATGGWETVFRPVCETCTDRS [S17C], the protein stability index was 3.15. NWRYATGGWETVFRPVYETCTDRS [S17Y]: the protein stability index was determined as 1.53.

As to NWRYATGGWETVFRPVFETCTDRS [S17F], the protein stability index was 2.77.

Turning to NWRYATGGWETVFRPVNETCTDRS [S17N], the protein stability index is 2.29. For NWRYATGGWETVFRPVRETCTDRS [S17R] the value was 1.88; for NWRYATGGDETVFRPVSETCTDRS [W9D], 2.33; for NWRYATGGIETVFRPVSETCTDRS [W9I], 2.22. Consider NWRYATGGYETVFRPVSETCTDRS [W9Y], for which the protein stability index was found to be 2.32. On to NWRYATGGVETVFRPVSETCTDRS [W9V], for which the protein stability index was 2.31.

Regarding NWRYATGGNETVFRPVSETCTDRS [W9N], the protein stability index was 2.27.

On to NWRYATGGSETVFRPVSETCTDRS [W9S], for which the protein stability index was determined as 2.03. As for NWRYATGGHETVFRPVSETCTDRS [W9H], the protein stability index came to 2.73. As for NWRYATGGGETVFRPVSETCTDRS [W9G], the protein stability index amounted to 1.96.

As for NWRYATGGFETVFRPVSETCTDRS [W9F], the protein stability index came out at 1.41.

As for NWRYATGGEETVFRPVSETCTDRS [W9E], the protein stability index worked out at 2.79. For NWRYATGGQETVFRPVSETCTDRS [W9Q] the value was 2.03; for NWRYATGGPETVFRPVSETCTDRS [W9P], 2.95; for NWRYATGGRETVFRPVSETCTDRS [W9R], 1.88. For NWRYATGGMETVFRPVSETCTDRS [W9M] the value was 1.72; for NWRYATGGLETVFRPVSETCTDRS [W9L], 2.29; for NWRYATGGKETVFRPVSETCTDRS [W9K], 2.06. For NWRYATGGTETVFRPVSETCTDRS [W9T] the value was 1.55; for NWRYATGGWETVFRNVSETCTDRS [P15N], 1.95.
